From patent US20260250397A1, “TREATMENT OF GASTRIC CANCER” (AMGEN INC., priority 2022, published 2026)
Entries after “also recorded” stand apart in the source; their conditions may differ. Like-named read-outs stand apart in the source and are kept apart here.

Columns and labels:
[1] = cited from earlier work
FcγRIIIa = FcγRIIIa (Homo sapiens, UniProt P08637); assay: Affinity for Fc receptor; type: binding; conditions: compared to the fucosylated molecule
From the text: In the method of some embodiments, the anti-FGFR2 antibody comprises the heavy chain of SEQ ID NO: 2 and the light chain of SEQ ID NO: 3, and is afucosylated.

[2] = Clinical safety of bemarituzumab (earlier studies, with mFOLFOX6); type: in vivo, human
From the text: Corneal events are very common with bemarituzumab with the most common adverse event being dry eye. Although nearly all of the events have been non-serious, grade 3 events such ulcerative keratitis and punctate keratitis which can lead to decreases in visual acuity have been observed. The majority of the corneal events typically resolve with treatment interruption or discontinuation and standard of care interventions for the corneal events. As such, it is contemplated that in some embodiments, subjects treated with bemarituzumab are further treated with ocular lubricants. The ocular lubricants may be administered prophylactically to reduce the risk of corneal events.

[3] = Embryo-fetal development with prenatal and postnatal development study; type: in vivo; conditions: all dose levels (5 to 100 mg/kg/doses)
Procedure: (§1) The half-life was dose-dependent, ranging from 0.8 days at the lowest doses (1 to 1.5 mg/kg) to at least 8 days at the highest doses (100 to 150 mg/kg) tested in cynomolgus monkeys. […] Target-mediated clearance was saturable, marked by dose-proportional increases in exposure at doses exceeding this level when dosed at weekly intervals. […] As such, it is contemplated that in some embodiments, subjects treated with bemarituzumab are not pregnant.

[4] = treatment with bemarituzumab, versus FGFR TKIs; cited from earlier work
[5] = Phase 1b study (Example 10): safety of bemarituzumab with CAPOX with or without nivolumab; type: in vivo, human; conditions: cohort A (DL1 & DL2) and cohort C; based on the known bemarituzumab safety profile
FGFR2b = biological target: T1, FGFR2b (Homo sapiens, UniProt P21802); assay: FGF ligand-stimulated FGFR2b phosphorylation and receptor level in cell culture; type: cell-based
T1 construct: in cell culture in FGFR2b overexpressing gastric and breast cancer cell lines; endogenous in cells
T1 sequence (P21802 22-822 isoform P21802-3 limits assumed): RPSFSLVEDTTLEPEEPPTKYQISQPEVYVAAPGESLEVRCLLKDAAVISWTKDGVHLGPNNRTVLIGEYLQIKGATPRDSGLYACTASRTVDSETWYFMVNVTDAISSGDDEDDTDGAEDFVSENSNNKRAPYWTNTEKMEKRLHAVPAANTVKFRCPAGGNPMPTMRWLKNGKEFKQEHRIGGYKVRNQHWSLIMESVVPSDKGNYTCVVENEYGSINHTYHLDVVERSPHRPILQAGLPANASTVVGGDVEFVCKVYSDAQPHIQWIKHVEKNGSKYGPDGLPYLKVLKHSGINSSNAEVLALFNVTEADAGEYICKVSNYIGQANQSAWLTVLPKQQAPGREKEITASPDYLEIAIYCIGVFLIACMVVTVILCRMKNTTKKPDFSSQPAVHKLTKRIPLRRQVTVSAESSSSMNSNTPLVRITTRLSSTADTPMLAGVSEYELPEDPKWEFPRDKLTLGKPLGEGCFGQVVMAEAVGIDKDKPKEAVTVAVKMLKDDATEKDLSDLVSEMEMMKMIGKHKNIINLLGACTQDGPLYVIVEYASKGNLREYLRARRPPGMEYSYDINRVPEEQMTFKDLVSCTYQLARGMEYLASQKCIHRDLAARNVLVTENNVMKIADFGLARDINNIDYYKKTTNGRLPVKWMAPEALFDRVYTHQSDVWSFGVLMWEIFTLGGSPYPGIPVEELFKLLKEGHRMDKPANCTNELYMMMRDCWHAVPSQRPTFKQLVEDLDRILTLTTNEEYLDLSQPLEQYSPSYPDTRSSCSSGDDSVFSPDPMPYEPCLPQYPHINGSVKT

[6] = system: FGFR2b overexpressing gastric and breast xenograft models; assay: Tumor xenograft models; type: in vivo
[7] = Phase 1b study (Example 10): bemarituzumab serum concentration / PK with CAPOX with or without nivolumab; type: in vivo, human; conditions: for Cycle 1 Cmax (median) / Cycle 1 Ctrough (median) / Cycle 2 Cmax (median) / Cycle 2 Ctrough (median): serum, preliminary
From the text: The actual sample collection date and time (24-hour clock time) of each sample will be recorded.

[8] = system: FGFR2b overexpressing gastric and breast cancer cell lines; assay: Cell proliferation in cell culture; type: cell-based; conditions: FGF ligand-stimulated
[9] = Pharmacokinetics after intravenous administration in cynomolgus monkeys; type: in vivo
Procedure: as §1

FGF23 signaling = assay: FGF23 signaling; conditions: in contrast to the FGFR tyrosine kinase inhibitors
FGFR substrate-2 (FRS2) = assay: Downstream signaling: phosphorylation of FGFR substrate-2 (FRS2); type: cell-based
Procedure: The effect on downstream signaling was measured by examining phosphorylation of a protein that is directly phosphorylated by the FGFR2 protein, FGFR substrate-2 (FRS2).

[10] = Cohort A DL1: 15 mg/kg IV Q3W + 7.5 mg/kg C1D8 + CAPOX, N=6
[11] = Cohort A DL2: 22 mg/kg IV Q3W + 11 mg/kg C1D8 + CAPOX, N=4
[12] = Cohort C: 22 mg/kg IV Q3W + 11 mg/kg C1D8 + CAPOX + Nivo, N=6

FcγRIIIa, sequence (P08637 17-254): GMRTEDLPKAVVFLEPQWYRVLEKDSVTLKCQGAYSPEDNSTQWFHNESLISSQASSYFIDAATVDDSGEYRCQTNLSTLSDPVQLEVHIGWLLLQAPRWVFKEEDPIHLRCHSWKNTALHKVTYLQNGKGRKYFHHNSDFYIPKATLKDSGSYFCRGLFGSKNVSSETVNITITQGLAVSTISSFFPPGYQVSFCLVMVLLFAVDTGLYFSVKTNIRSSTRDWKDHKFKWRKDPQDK

For `CCCCCOC(=O)Nc1nc(=O)n([C@@H]2O[C@H](C)[C@@H](O)[C@H]2O)cc1F` [capecitabine], the “most common side effects” value ([1]; (30%)) is listed as “diarrhea, hand-and-foot syndrome, nausea, vomiting, abdominal pain, fatigue/weakness, and hyperbilirubinemia”.
In the case of `O=C1[O][Pt]2([NH][C@@H]3CCCC[C@H]3[NH]2)[O]C1=O` [oxaliplatin], the “most common side effects” value ([1]; (40%)) is listed as “peripheral sensory neuropathy, neutropenia, thrombocytopenia, anemia, nausea, increase in transaminases and alkaline phosphatase, diarrhea, emesis, fatigue, and stomatitis”.
In the case of bemarituzumab, the “affinity for the Fc receptor FcγRIIIa” value (FcγRIIIa) was “higher affinity”, the safety profile ([2]; human, in vivo) was “acceptable safety profile” and the identified risks ([2]; in combination with mFOLFOX6) was “corneal toxicity, infusion related reactions, gastrointestinal toxicity (stomatitis and mucosal inflammation), nail toxicity and increase in AST and ALT”. For the same molecule, the “reproductive and developmental toxicities” value [3] was “Significant reproductive and developmental toxicities were observed at all dose levels”, the hyperphosphatemia [4] was “not associated with the hyperphosphatemia” and the safety findings [5] was “no new safety findings”. For the same molecule, the FGFR2b receptor level (FGFR2b) was “downregulates the receptor”, the FGFR2b phosphorylation (FGFR2b; FGF ligand-stimulated, FGFR2b overexpressing gastric and breast cancer cell lines) was “inhibits; also recorded: blocks” and the tumor growth ([6]; FGFR2b overexpressing gastric and breast xenograft models) was “inhibits tumor growth”. The anti-tumor activity ([6]; FGFR2b-overexpressing human tumor xenograft models, well-tolerated doses) was “dose-related anti-tumor activity with regression and complete responses”, the “drug-drug interaction (DDI) with respect to PK between bemarituzumab and nivolumab” value ([7]; CAPOX background) was “No drug-drug interaction” and the “Cycle 1 Cmax (median)” value [7, 10] was 360.8 µg/mL. The “Cycle 1 Ctrough (median)” value [7, 10] was 111.5 µg/mL, the “Cycle 2 Cmax (median)” value [7, 10] was 457.0 µg/mL and the “Cycle 2 Ctrough (median)” value [7, 10] was 86.6 µg/mL. For the same molecule, the “Cycle 1 Cmax (median)” value [7, 11] was 333.8 µg/mL, the “Cycle 1 Ctrough (median)” value [7, 11] was 125.9 µg/mL and the “Cycle 2 Cmax (median)” value [7, 11] was 655.8 µg/mL. For the same molecule, the “Cycle 2 Ctrough (median)” value [7, 11] was 71.1 µg/mL, the “Cycle 1 Cmax (median)” value [7, 12] was 381.4 µg/mL and the “Cycle 1 Ctrough (median)” value [7, 12] was 130.1 µg/mL. The “Cycle 2 Cmax (median)” value [7, 12] was 549.8 µg/mL, the “Cycle 2 Ctrough (median)” value [7, 12] was 133.0 µg/mL and the cell proliferation [8] was “inhibits”. For the same molecule, the half-life ([9]; highest doses (100 to 150 mg/kg) tested) was “at least 8 days”, the half-life ([9]; lowest doses (1 to 1.5 mg/kg)) was 19 h and the PK behaviour ([9]; rats and cynomolgus monkeys) was “dose-dependent, nonlinear PK”. The FGF23 signaling (FGF23 signaling) was “does not inhibit” and the “downstream signaling (FRS2 phosphorylation)” value (FGFR substrate-2 (FRS2)) was “inhibits downstream signaling”.
